Measured values reported in IntAct's records for PubMed 20581866.

B1: ATPase family AAA domain-containing protein 2 (Mus musculus), Q8CDM1 (parent)
chain: MSLLKMRRHAIHSSDSTSSSSSEDDCFERRTKRNRNRAINRCLPLNFRKDEIRGIYKDRMKIGASLADVDPMQLDTSVRFDSVGGLSSHIAALKEMVVFPLLYPEVFEKFKIQPPRGCLFYGPPGTGKTLVARALANECSRGDKRVAFFMRKGADCLSKWVGESERQLRLLFDQAYQMRPAIIFFDEIDGLAPVRSSRQDQIHSSIVSTLLALMDGLDSRGEIVVIGATNRLDSIDPALRRPGRFDREFLFSLPDKNARKEILKIHTRDWNPKPVDMFLEELAEHCVGYCGADIKSICAEAALCALRRRYPQIYTTSEKLQLDLSSITISAKDFEAALQKIRPASQRAVTSPGQALSAIVKPLLQNTVHRILDALQKVFPHVEVGTNKSLNSDVSCPFLESDLAYSDDDTPSVYENGLSQKENLNFLHLNRNACYQPMSFRPRLLIVGEPGFGQSSHLAPAVIHALEKFTVYTLDIPVLFGISTTSPEEACSQMIREAKRTAPSIVYVPHIHLWWEIVGPTLKATFTTLLQTIPSFAPVLLLATSEKPYSALPEEVQELFTHDYGEIFNVQLPDKEERTKFFEDLILKQASKPPVSQKKAVLQALEVLPVAPPPEPRPLTAEEVKRLEEQEEDTFRELRIFLRNVTHRLAIDKRFRVFTKPVDPDEVPDYVTVIKQPMDLSSVISKIDLHKYLTVKDYLKDIDLICSNALEYNPDRDPGDRLIRHRACALRDTAYAIIKEELDEDFEQLCEEIQESRKKRGCSSSKYAPSYYHVMPKQNSPPVGDKKPDQEQNEKLKVPCTPVACSTPAQLKRKFHKKSKWHVGTKIKRRKISQAKDNSLNAMNSSSRSDTEDSQHTHAEHTEPGNTDESSVEESDKQNRLESNIDLKNNSSSSNIENELEEPKETTEGTELRKDRIVCRGDASASQVTDIPEDSESKEMDFLRMTLARGSQVEQQELISMEQALAILSQPTPSLVLDHKQLTNILKTVVKKSQKYNIFQLENLYAVISQCIYEHRRDYDKTALVQKMEQAVENFNCSRS

Variants of: B1
Details: with h4_mouse H4c11, P62806

effect of a mutation on the interaction	Variant
disrupting interaction	K128S
disrupting interaction	Y670F
